In US20220315554A1, “COMPOUNDS COMPRISING A […] LIGAND AND USE THEREOF” (priority 2019, published 2022):
Numbered stars: 1 amine (or outer) side, 2 acyl side, 3 side chain; on linkers, the order of the positions; unused ones are H or OH. Bridge positions count the residues as written; N and C are the ends. Ends that are not written are not given here. * marks the point of attachment. Ttds = 1,13-diamino-4,7,10-trioxatridecan-succinamic acid, NCCCOCCOCCOCCCNC(=O)CCC(=O)*; tMeBn(DOTA-AET) = Cys-Cys bridge (thioethers) carrying DOTA-AET; tMeBn(DOTA-PP) = Cys-Cys bridge (thioethers) carrying DOTA-PP; DOTA = O=C(O)CN1CCN(CC(=O)O)CCN(CC(=O)*)CCN(CC(=O)O)CC1; mXylylene = c1cc(C[*:1])cc(C[*:2])c1; tMeBn(LuDOTA-AET) = not defined here; 2Lut = Cys-Cys bridge (thioethers); 3Lut = Cys-Cys bridge (thioethers); Pentanesulfonyl = CCCCCS(=O)(=O)*; PentylNH‑urea = CCCCCNC(=O)*; Hexanoyl = CCCCCC(=O)*

T1: Recombinant human FAP (R&D systems, #3715-SE) (human)
T1 sequence: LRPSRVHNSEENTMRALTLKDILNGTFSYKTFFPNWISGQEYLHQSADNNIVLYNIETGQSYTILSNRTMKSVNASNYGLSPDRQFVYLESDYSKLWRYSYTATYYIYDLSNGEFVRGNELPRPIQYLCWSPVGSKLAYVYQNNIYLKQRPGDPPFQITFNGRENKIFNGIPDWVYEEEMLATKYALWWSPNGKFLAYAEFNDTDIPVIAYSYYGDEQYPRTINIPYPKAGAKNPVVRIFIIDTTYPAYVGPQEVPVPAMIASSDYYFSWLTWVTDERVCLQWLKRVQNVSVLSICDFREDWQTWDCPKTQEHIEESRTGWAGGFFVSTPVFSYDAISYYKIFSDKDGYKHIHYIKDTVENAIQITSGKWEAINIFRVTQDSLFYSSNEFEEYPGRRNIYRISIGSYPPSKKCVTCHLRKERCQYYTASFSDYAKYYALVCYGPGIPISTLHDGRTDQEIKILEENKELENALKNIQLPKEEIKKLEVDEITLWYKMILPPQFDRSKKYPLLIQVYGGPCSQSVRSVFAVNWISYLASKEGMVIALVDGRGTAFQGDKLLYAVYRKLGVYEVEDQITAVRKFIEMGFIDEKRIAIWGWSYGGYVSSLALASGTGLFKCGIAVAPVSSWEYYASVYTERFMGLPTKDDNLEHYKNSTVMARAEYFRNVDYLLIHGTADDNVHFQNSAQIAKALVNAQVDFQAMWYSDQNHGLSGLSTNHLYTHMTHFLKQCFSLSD

B1: Hex-[Cys(3MeBn)-Pro-Pro-Thr-Gln-Phe-Cys]-Asp-NH2 (peptide)
peptide: Hexanoyl-CPPTQFCD-NH2
modifications: linker 1-7 via mXylylene
SMILES: CCCCCC(=O)N[C@H]1CSCc2cccc(c2)CSC[C@@H](C(=O)N[C@@H](CC(=O)O)C(N)=O)NC(=O)[C@H](Cc2ccccc2)NC(=O)[C@H](CCC(N)=O)NC(=O)[C@H]([C@@H](C)O)NC(=O)[C@@H]2CCCN2C(=O)[C@@H]2CCCN2C1=O
B2: Hex-[Cys(3MeBn)-Pro-Pro-Thr-Gln-Phe-Cys]-Asp-Ape-NH-DOTA' (peptide)
peptide: Hexanoyl-CPPTQFCD
modifications: linker 1-7 via mXylylene; not fully specified (C-terminus); printed as Hex-[Cys(3MeBn)-Pro-Pro-Thr-Gln-Phe-Cys]-Asp-Ape(DOTA)
B3: Hex-[Cys(3MeBn)-Pro-Pro-Thr-Glu-Phe-Cys]-Asp-NH2 (peptide)
peptide: Hexanoyl-CPPTEFCD-NH2
modifications: linker 1-7 via mXylylene
SMILES: CCCCCC(=O)N[C@H]1CSCc2cccc(c2)CSC[C@@H](C(=O)N[C@@H](CC(=O)O)C(N)=O)NC(=O)[C@H](Cc2ccccc2)NC(=O)[C@H](CCC(=O)O)NC(=O)[C@H]([C@@H](C)O)NC(=O)[C@@H]2CCCN2C(=O)[C@@H]2CCCN2C1=O
B4: Hex-[Cys(tMeBn(DOTA-AET))-Pro-Pro-Thr-Gln-Phe-Cys]-asp-NH2 (peptide)
peptide: CPPTQFCD
modifications: N-terminal Hex (hexanoyl); Cys1-Cys7 bridged by tMeBn(DOTA-AET) (thioethers); D-Asp8 (asp); C-terminal amide
B5: Hex-[Cys(3MeBn)-Pro-Pro-Thr-Gln-Phe-Cys]-Asp-Ttds-Ape-NH-DOTA' (peptide)
peptide: Hexanoyl-CPPTQFCD
modifications: linker 1-7 via mXylylene; not fully specified (C-terminus); printed as Hex-[Cys(3MeBn)-Pro-Pro-Thr-Gln-Phe-Cys]-Asp-Ttds-Ape(DOTA)
B6: PentylNH-urea-[Cys(3MeBn)-Pro-Pro-Thr-Gln-Phe-Cys]-Asp-NH2 (peptide)
peptide: {PentylNH‑urea}-CPPTQFCD-NH2
modifications: linker 1-7 via mXylylene
SMILES: CCCCCNC(=O)N[C@H]1CSCc2cccc(c2)CSC[C@@H](C(=O)N[C@@H](CC(=O)O)C(N)=O)NC(=O)[C@H](Cc2ccccc2)NC(=O)[C@H](CCC(N)=O)NC(=O)[C@H]([C@@H](C)O)NC(=O)[C@@H]2CCCN2C(=O)[C@@H]2CCCN2C1=O
B7: Hex-[Cys(3MeBn)-Pro-Pro-Thr-Glu-Phe-Cys]-Asp-His-Phe-Arg-Asp-NH2 (peptide)
peptide: Hexanoyl-CPPTEFCDHFRD-NH2
modifications: linker 1-7 via mXylylene
SMILES: CCCCCC(=O)N[C@H]1CSCc2cccc(c2)CSC[C@@H](C(=O)N[C@@H](CC(=O)O)C(=O)N[C@@H](Cc2c[nH]cn2)C(=O)N[C@@H](Cc2ccccc2)C(=O)N[C@@H](CCCNC(=N)N)C(=O)N[C@@H](CC(=O)O)C(N)=O)NC(=O)[C@H](Cc2ccccc2)NC(=O)[C@H](CCC(=O)O)NC(=O)[C@H]([C@@H](C)O)NC(=O)[C@@H]2CCCN2C(=O)[C@@H]2CCCN2C1=O
B8: Ac-[Cys(3MeBn)-Pro-Pro-Thr-Glu-Phe-Cys]-Asp-His-Phe-Arg-Asp-NH2 (peptide)
peptide: Ac-CPPTEFCDHFRD-NH2
modifications: linker 1-7 via mXylylene
SMILES: CC(=O)N[C@H]1CSCc2cccc(c2)CSC[C@@H](C(=O)N[C@@H](CC(=O)O)C(=O)N[C@@H](Cc2c[nH]cn2)C(=O)N[C@@H](Cc2ccccc2)C(=O)N[C@@H](CCCNC(=N)N)C(=O)N[C@@H](CC(=O)O)C(N)=O)NC(=O)[C@H](Cc2ccccc2)NC(=O)[C@H](CCC(=O)O)NC(=O)[C@H]([C@@H](C)O)NC(=O)[C@@H]2CCCN2C(=O)[C@@H]2CCCN2C1=O
B9: Pentyl-SO2-[Cys(3MeBn)-Pro-Pro-Thr-Gln-Phe-Cys]-Asp-NH2 (peptide)
peptide: Pentanesulfonyl-CPPTQFCD-NH2
modifications: linker 1-7 via mXylylene
SMILES: CCCCCS(=O)(=O)N[C@H]1CSCc2cccc(c2)CSC[C@@H](C(=O)N[C@@H](CC(=O)O)C(N)=O)NC(=O)[C@H](Cc2ccccc2)NC(=O)[C@H](CCC(N)=O)NC(=O)[C@H]([C@@H](C)O)NC(=O)[C@@H]2CCCN2C(=O)[C@@H]2CCCN2C1=O
B10: Hex-[Cys(tMeBn(LuDOTA-AET))-Pro-Pro-Thr-Gln-Phe-Cys]-OH (peptide)
peptide: Hexanoyl-CPPTQFC-OH
modifications: linker 1-7 via tMeBn(LuDOTA-AET); reading uncertain; also: Lu-DOTA complex, printed as Hex-[Cys(tMeBn(LuDOTA-AET))-Pro-Pro-Thr-Gln-Phe-Cys]-OH
B11: Hex-[Cys(3MeBn)-Ala-Pro-Thr-Glu-Phe-Cys]-NH2 (peptide)
peptide: Hexanoyl-CAPTEFC-NH2
modifications: linker 1-7 via mXylylene
SMILES: CCCCCC(=O)N[C@H]1CSCc2cccc(c2)CSC[C@@H](C(N)=O)NC(=O)[C@H](Cc2ccccc2)NC(=O)[C@H](CCC(=O)O)NC(=O)[C@H]([C@@H](C)O)NC(=O)[C@@H]2CCCN2C(=O)[C@H](C)NC1=O

Each binder was assayed against T1, Recombinant human FAP (R&D systems, #3715-SE) (human) (assay: not given). Details: not given.

| pIC50 Category (Activity) [pIC50] | Binder |
| --- | --- |
| > 8 | Pentanesulfonyl-CPPTQFCD-NH2 (linker 1-7 via tMeBn(DOTA-PP)) [Pentyl-SO2-[Cys(tMeBn(DOTA-PP))-Pro-Pro-Thr-Gln-Phe-Cys]-Asp-NH2] |
| > 8 | B1 |
| > 8 | B2 |
| > 8 | B3 |
| > 8 | B4 |
| > 8 | B5 |
| > 8 | Hexanoyl-CPPTQFCS-OH (linker 1-7 via tMeBn(DOTA-AET)) [Hex-[Cys(tMeBn(DOTA-AET))-Pro-Pro-Thr-Gln-Phe-Cys]-Ser-OH] |
| > 8 | Hexanoyl-CPPTQFCD-NH2 (linker 1-7 via tMeBn(EuDOTA-PP); also: Eu-DOTA complex) [Hex-[Cys(tMeBn(EuDOTA-PP))-Pro-Pro-Thr-Gln-Phe-Cys]-Asp-NH2] |
| > 8 | B6 |
| > 8 | Hexanoyl-CPPTQFCD-NH2 (linker 1-7 via tMeBn(DOTA-AET)) [Hex-[Cys(tMeBn(DOTA-AET))-Pro-Pro-Thr-Gln-Phe-Cys]-Asp-NH2] |
| > 8 | Hexanoyl-CPPTQFCD-NH2 (linker 1-7 via 3Lut) [Hex-[Cys(3Lut)-Pro-Pro-Thr-Gln-Phe-Cys]-Asp-NH2] |
| > 8 | B7 |
| > 8 | {DOTA-Ttds}-LCPPTEFCDHFRD-NH2 (linker 2-8 via mXylylene) [DOTA-Ttds-Leu-[Cys(3MeBn)-Pro-Pro-Thr-Glu-Phe-Cys]-Asp-His-Phe-Arg-Asp-NH2] |
| > 8 | B8 |
| > 8 | Hexanoyl-CPPTQFCD-NH2 (linker 1-7 via 2Lut) [Hex-[Cys(2Lut)-Pro-Pro-Thr-Gln-Phe-Cys]-Asp-NH2] |
| > 8 | B9 |
| > 8 | Hexanoyl-CPPTQFCD-NH2 (linker 1-7 via tMeBn(LuDOTA-PP); also: Lu-DOTA complex) [Hex-[Cys(tMeBn(LuDOTA-PP))-Pro-Pro-Thr-Gln-Phe-Cys]-Asp-NH2] |
| > 8 | Hexanoyl-CPPTQFCD-OH (linker 1-7 via tMeBn(DOTA-AET)) [Hex-[Cys(tMeBn(DOTA-AET))-Pro-Pro-Thr-Gln-Phe-Cys]-Asp-OH] |
| > 8 | Hexanoyl-CPPTQFCD-NH2 (linker 1-7 via tMeBn(InDOTA-PP); also: In-DOTA complex) [Hex-[Cys(tMeBn(InDOTA-PP))-Pro-Pro-Thr-Gln-Phe-Cys]-Asp-NH2] |
| > 8 | Hexanoyl-CPPTQFCD-NH2 (linker 1-7 via tMeBn(GaDOTA-PP)) [Hex-[Cys(tMeBn(GaDOTA-PP))-Pro-Pro-Thr-Gln-Phe-Cys]-Asp-NH2] |
| > 8 | Hexanoyl-CPPTEFC-NH2 (linker 1-7 via tMeBn(DOTA-AET)) [Hex-[Cys(tMeBn(DOTA-AET))-Pro-Pro-Thr-Glu-Phe-Cys]-NH2] |

Each binder was assayed against T2, human fibroblast activation protein (FAP) on FAP-expressing human WI-38 fibroblasts (human) (assay: competition FACS, WI-38 cells, vs Cy5-labeled compound; A: pIC50 >8.0). Details: remark: other sources report otherwise.

| pIC50 Category (FACS) [pIC50] | Binder |
| --- | --- |
| > 8 | B3 |
| > 8 | Hexanoyl-CPPTQFC-OH (linker 1-7 via tMeBn(DOTA-AET)) [Hex-[Cys(tMeBn(DOTA-AET))-Pro-Pro-Thr-Gln-Phe-Cys]-OH] |
| > 8 | Hexanoyl-CPPTQFC-OH (linker 1-7 via tMeBn(EuDOTA-AET); also: Eu-DOTA complex) [Hex-[Cys(tMeBn(EuDOTA-AET))-Pro-Pro-Thr-Gln-Phe-Cys]-OH] |
| > 8 | Hexanoyl-CPPTQFC-OH (linker 1-7 via tMeBn(InDOTA-AET); also: In-DOTA complex) [Hex-[Cys(tMeBn(InDOTA-AET))-Pro-Pro-Thr-Gln-Phe-Cys]-OH] |
| > 8 | Hexanoyl-CPPTQFC-NH2 (linker 1-7 via tMeBn(InDOTA-AET); also: In-DOTA complex) [Hex-[Cys(tMeBn(InDOTA-AET))-Pro-Pro-Thr-Gln-Phe-Cys]-NH2] |
| > 8 | B10 |
| > 8 | Hexanoyl-CPPTQFC-NH2 (linker 1-7 via tMeBn(DOTA-AET)) [Hex-[Cys(tMeBn(DOTA-AET))-Pro-Pro-Thr-Gln-Phe-Cys]-NH2] |
| > 8 | Pentanesulfonyl-CPPTQFC-OH (linker 1-7 via tMeBn(DOTA-AET)) [Pentyl-SO2-[Cys(tMeBn(DOTA-AET))-Pro-Pro-Thr-Gln-Phe-Cys]-OH] |

These binders were tested against T2, human fibroblast activation protein … (assay: competition FACS, WI-38 cells, vs Cy5-labeled compound; D: pIC50 ≤6.0). Details: remark: other sources report otherwise.

| pIC50 Category (FACS) [pIC50] | Binder |
| --- | --- |
| < 6 | B11 |
